Reference: patent publication US20200199202A1 (published 2020)

T1: soluble human NPC1 domain C protein (UniProt O15118 372-622)
T1 chain: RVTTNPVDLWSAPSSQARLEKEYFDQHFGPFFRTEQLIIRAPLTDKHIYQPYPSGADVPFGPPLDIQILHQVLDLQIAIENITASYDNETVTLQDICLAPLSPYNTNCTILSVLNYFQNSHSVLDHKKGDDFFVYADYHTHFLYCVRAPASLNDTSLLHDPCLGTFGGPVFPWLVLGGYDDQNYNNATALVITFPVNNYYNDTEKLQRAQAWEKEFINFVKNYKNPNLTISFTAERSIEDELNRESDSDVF


Tests used:
NHP NPC1-C = NHP NPC1-C (Colobus guereza); test: BLI; pH 5.5
[1] = target: T1, soluble human NPC1 domain C protein; test: BLI; pH 7.5
[2] = target: T1, soluble human NPC1 domain C protein; test: BLI; pH 5.5
[3] = target: T1, soluble human NPC1 domain C protein; test: BLI; pH 7.5

Row | Binder | Kd (NHP NPC1-C) [pM] | Kd [1] [pM] | Kd [2] [pM] | Kd [3] [pM]
1 | 548 (antibody, V domains shown) VH: EVQLQQSGAELVKPGASVKLSCTASGFNIKDTYMHWVKQRPEEGLEWIGRIDPADGNTEYVPKFQGKATITADTFSNTVYLQLSGLTSEDTAVYYCSRGYYWGQGTTLTVSS VL: DIQMTQSPASLSASVGETVTITCRASENIYSYLAWYQQKQGKSPQLLVYNAKTLAEGVPSRFSGSGSGTQFSLKINSLQPEDFGIYYCQHHYGSPWAFGGGTKLEIK | < 1 |  |  | 
2 | mAb 548 (anti-human NPC1 domain C monoclonal antibody) (antibody, V domains shown) VH: EVQLQQSGAELVKPGASVKLSCTASGFNIKDTYMHWVKQRPEEGLEWIGRIDPADGNTEYVPKFQGKATITADTFSNTVYLQLSGLTSEDTAVYYCSRGYYWGQGTTLTVSS VL: DIQMTQSPASLSASVGETVTITCRASENIYSYLAWYQQKQGKSPQLLVYNAKTLAEGVPSRFSGSGSGTQFSLKINSLQPEDFGIYYCQHHYGSPWAFGGGTKLEIK |  | < 1 | < 1 | < 1
